Tests used:
Human RXRα protein = target: T1, Human RXRα protein (human, UniProt P19793 1-462, limits assumed); experiment: gel shift of in vitro translated RIP with E. coli-expressed RXRα on labeled βRARE; the complex with RXR is seen on DNA
T1 construct: Used in the gel shifts
T1 sequence (looked up): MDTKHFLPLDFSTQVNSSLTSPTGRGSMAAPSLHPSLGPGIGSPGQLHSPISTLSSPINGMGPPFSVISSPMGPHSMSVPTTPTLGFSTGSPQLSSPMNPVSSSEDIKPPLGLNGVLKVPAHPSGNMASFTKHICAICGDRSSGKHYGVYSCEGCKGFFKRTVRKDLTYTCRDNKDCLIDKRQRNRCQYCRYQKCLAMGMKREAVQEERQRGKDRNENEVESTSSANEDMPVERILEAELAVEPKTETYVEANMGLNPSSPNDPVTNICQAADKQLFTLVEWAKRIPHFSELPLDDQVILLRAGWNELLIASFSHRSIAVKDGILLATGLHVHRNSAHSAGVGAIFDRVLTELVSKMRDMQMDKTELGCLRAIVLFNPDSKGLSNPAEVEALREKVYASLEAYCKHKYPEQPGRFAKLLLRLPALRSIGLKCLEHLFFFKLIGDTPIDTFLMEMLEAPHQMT
Experimental: The binding of the RIP14-2 isoform to this element was weaker than that of RIP14-1 when similar amounts of RIP14 proteins were used. […] Several other DNA elements were tested in the gel shift assay, including the retinoic acid response element from the promoter of the human RARβ2 isoform (βRARE) (de The et al., Nature 343:177–180, 1990). In the presence of RXR, the βRARE was bound by both the RIP14 isoforms and RIP15 (FIG. 8, panel B). Again, the binding of the RIP14-2/RXR heterodimer was weaker than the RIP14-1/RXR heterodimer when a similar amount of RIP14 proteins were used (FIG. 8, panel B, lanes 10 and 14).
RIP14 and RIP15 proteins were produced by in vitro translation (Promega TNT, Madison, Wis.) using expression vectors containing the RIP genes following a T7 promoter. To generate full length RIP14-2 constructs, fragments from RIP14-1 clone No. 15 containing regions from the middle of the E domain to the 3' end replaced the corresponding regions of RIP14-2 Clones No. 3 or 12, respectively. Sequences were confirmed by DNA sequencing. Human RXRα protein was expressed in E. coli using a bacterial expression vector based on the bacteriophage T7 promoter (Carter et al., Mol. Cell. Biol. in press., 1994). […]

LexA-TR = target: T2, LexA-TR (bacterial; rat, UniProt P0A7C2 1-202; P18113 170-461, limits assumed); experiment: yeast interaction trap, X-gal plate, with T3; W = white (no interaction)
T2 construct: also called Lex fusion TR
T2 sequence (looked up): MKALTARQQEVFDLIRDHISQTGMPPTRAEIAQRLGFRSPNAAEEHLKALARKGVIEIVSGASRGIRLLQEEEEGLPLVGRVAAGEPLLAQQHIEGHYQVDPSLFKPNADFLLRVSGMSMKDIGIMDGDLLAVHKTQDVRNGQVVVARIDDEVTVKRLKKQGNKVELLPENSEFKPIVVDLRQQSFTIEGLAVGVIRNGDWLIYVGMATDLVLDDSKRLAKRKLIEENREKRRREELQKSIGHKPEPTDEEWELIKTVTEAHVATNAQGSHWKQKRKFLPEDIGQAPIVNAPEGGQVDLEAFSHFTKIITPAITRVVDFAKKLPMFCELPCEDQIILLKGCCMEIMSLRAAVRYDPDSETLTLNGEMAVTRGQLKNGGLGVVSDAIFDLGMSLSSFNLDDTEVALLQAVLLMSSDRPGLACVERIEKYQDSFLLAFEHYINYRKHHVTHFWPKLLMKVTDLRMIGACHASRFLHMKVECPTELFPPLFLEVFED
Experimental: (§1) Interactions of the RIP clones with other superfamily members, including RAR, TR, the glucocorticoid receptor (GR), and MB67, an orphan isolated in this lab (Baes et al., Mol. Cell. Biol. 14:1544–1552, 1994) were also tested using a series of appropriate LexA fusions. In particular, the experiments shown in Table 1 were carried out as follows. Yeast transformants containing a lacZ reporter gene under the control of LexA binding sites and the indicated B42- and Lex-fusion protein expression vectors were transferred onto galactose-Ura⁻His⁻Trp⁻ plates containing X-gal and incubated for two days. Relative levels of β-galactosidase activity were estimated and are depicted as follows: B, blue (strong interaction); LB, light blue (weak interaction); W, white (no interaction); nt, not tested. At least three separate colonies were tested on the same plate for interaction. To test the effects of ligands, 100 µl of a 10^-6M solution of the appropriate ligand was spread onto plates just before inoculation of cells (9-cis-RA for RXR, T3 for TR, and all-trans-RA for RAR). For B42-PPAR, the plasmid isolated from the screening was used. Both full length and truncated RAR fusions to LexA were tested with identical results for all the B42 fusions except B42-110, which was tested only with the full length fusion.

LexA-MB67 = target: T3, LexA-MB67 (bacterial, UniProt P0A7C2 1-202; Q14994 76-348, limits assumed); experiment: yeast interaction trap, X-gal plate; W = white (no interaction)
T3 construct: Made by PCR, 'analogous' to LexA-RXR and LexA-TR; also called Lex fusion MB67
T3 sequence (looked up): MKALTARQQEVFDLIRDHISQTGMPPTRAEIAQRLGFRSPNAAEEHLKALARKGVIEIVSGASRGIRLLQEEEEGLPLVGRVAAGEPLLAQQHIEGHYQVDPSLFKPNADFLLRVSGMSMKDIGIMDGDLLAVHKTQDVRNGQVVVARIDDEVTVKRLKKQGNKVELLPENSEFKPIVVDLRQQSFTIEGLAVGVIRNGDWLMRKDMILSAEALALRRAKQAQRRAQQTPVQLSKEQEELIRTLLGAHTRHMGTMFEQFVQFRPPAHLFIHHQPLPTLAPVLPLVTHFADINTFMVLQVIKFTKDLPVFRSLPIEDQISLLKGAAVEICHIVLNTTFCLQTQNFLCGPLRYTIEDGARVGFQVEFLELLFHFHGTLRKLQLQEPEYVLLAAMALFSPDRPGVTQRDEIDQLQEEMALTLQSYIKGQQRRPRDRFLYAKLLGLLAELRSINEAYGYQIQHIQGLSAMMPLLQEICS
Experimental: as §1

LexA-RXR [1] = target: T4, LexA-RXR (bacterial; human, UniProt P0A7C2 1-202; P19793 196-462, limits assumed); experiment: yeast interaction trap screen; clones showing specific interaction with LexA-RXR; all six clones start at amino acid 132
T4 construct: also called Lex fusion RXR
T4 sequence (looked up): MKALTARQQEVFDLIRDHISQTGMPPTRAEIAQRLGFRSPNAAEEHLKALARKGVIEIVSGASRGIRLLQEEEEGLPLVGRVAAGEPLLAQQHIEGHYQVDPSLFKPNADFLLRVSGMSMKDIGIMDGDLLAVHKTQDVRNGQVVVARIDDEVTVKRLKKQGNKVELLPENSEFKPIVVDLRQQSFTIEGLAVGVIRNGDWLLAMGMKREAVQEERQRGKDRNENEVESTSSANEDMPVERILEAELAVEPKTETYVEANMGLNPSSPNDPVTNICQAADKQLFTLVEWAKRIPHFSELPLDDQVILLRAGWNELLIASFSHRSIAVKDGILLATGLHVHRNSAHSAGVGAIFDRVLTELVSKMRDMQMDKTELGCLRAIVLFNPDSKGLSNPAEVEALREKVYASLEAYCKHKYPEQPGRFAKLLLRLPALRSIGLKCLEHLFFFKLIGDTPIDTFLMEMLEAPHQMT
Experimental: (§2) From 3×10^6 primary yeast transformants, a number of β-gal expressing colonies were identified in two independent screens carried out in the presence or absence of 9-cis-RA. Since expression of the B42-cDNA fusion proteins was induced by growth on galactose, candidates obtained from each condition were tested for galactose-dependent expression of both β-gal and LEU2, in the presence or absence of 9-cis-RA, using appropriate indicator plates (see below).
(§3) Candidates showing specific interaction with LexA-RXR were sequenced across the B42 fusion junction using an appropriate vector primer, and additional sequence was determined. The deduced amino acid sequences were compared to those in the GenBank and EMBL databases using the GCG (Devereux et al., Nucleic Acids Res. 12:387–395, 1984) and BLAST programs (Altschul et al., J. Mol. Biol. 215:403–410, 1990). […] All of these clones included intact ligand binding domains, as expected from the fact that the major heterodimerization function lies within that domain. For PPAR (Issemann et al., Nature 347:645–650, 1990), three clones started at amino acid 84, just N-terminal to the DNA binding (C) domain, four others started at 91, within the C domain, and one at 170, just past the C domain. For RAR (Leroy et al., EMBO J. 10:59–69), all six clones started at amino acid 132, within the C domain.

LexA-RXR [2] = target: T4, LexA-RXR; experiment: yeast interaction trap screen; clones showing specific interaction with LexA-RXR; one clone starting at amino acid 170
Experimental: as §2, §3

B1: RIP15 (receptor)
chain: MSSPTSSLDTPVPGNGSPQPSTSATSPTIKEEGQETDPPPGSEGSSSAYIVVILEPEDEPERKRKKGPAPKMLGHELCRVCGDKASGFHYNVLSCEGCKGFFRRSVVHGGAGRYACRGSGTCQMDAFMRRKCQLCRLRKCKEAGMREQCVLSEEQIRKKRIQKQQQQQPPPPSEPAASSSGRPAASPGTSEASSQGSGEGEGIQLTAAQELMIQQLVAAQLQCNKRSFSDQPKVTPWPLGADPQSRDARQQRFAHFTELAIISVQEIVDFAKQVPGFLQLGREDQIALLKASTIEIMLLQTARRYNHETECITFLKDFTYSKDDFHRAGLQVEFINPIFEFSRAMRRLGLDDAEYALLIAINIFSADRPNVQEPSRVEALQQPYVEALLSYTRIKRPQDQLRFPRMLMKLVSLRTLSSVHSEQVFALRLQDKKLPPLLSEIWDVHE
notes: Intact 446 amino acid protein; It was translated in vitro for gel shifts and expressed from a CDM vector in HepG2 cells
Q: Does B1 bind (Human RXRα protein)?
A: binds

B2: B42-RIP15 (other, not shown: large carriers)
chain: EEQIRKKRIQKQQQQQPPPPSEPAASSSGRPAASPGTSEASSQGSGEGEGIQLTAAQELMIQQLVAAQLQCNKRSFSDQPKVTPWPLGADPQSRDARQQRFAHFTELAIISVQEIVDFAKQVPGFLQLGREDQIALLKASTIEIMLLQTARRYNHETECITFLKDFTYSKDDFHRAGLQVEFINPIFEFSRAMRRLGLDDAEYALLIAINIFSADRPNVQEPSRVEALQQPYVEALLSYTRIKRPQDQLRFPRMLMKLVSLRTLSSVHSEQVFALRLQDKKLPPLLSEIWDVHE
notes: Original yeast clone; Its B42 fusion junction is near the beginning of the hinge (D) domain, with no residue number stated; also called B42 fusion 15; RIP15 chimera
Q: Does B2 bind (LexA-TR)?
A: no binding

Q: Does B2 bind (LexA-MB67)?
A: no binding

B3: B42-RAR (other, mouse, UniProt P11416 132-462, looked up, not shown: large carriers)
chain: INKVTRNRCQYCRLQKCFDVGMSKESVRNDRNKKKKEAPKPECSESYTLTPEVGELIEKVRKAHQETFPALCQLGKYTTNNSSEQRVSLDIDLWDKFSELSTKCIIKTVEFAKQLPGFTTLTIADQITLLKAACLDILILRICTRYTPEQDTMTFSDGLTLNRTQMHNAGFGPLTDLVFAFANQLLPLEMDDAETGLLSAICLICGDRQDLEQPDKVDMLQEPLLEALKVYVRKRRPSRPHMFPKMLMKITDLRSISAKGAERVITLKMEIPGSMPPLIQEMLENSEGLDTLSGQSGGGTRDGGGLAPPPGSCSPSLSPSSHRSSPATQSP
notes: range 132-C-terminus; All six isolated clones start at amino acid 132; also called RARα (six clones)
Q: Does B3 bind (LexA-RXR [1])?
A: binds

B4: B42-PPAR clone starting at amino acid 170 (other, mouse, UniProt P23204 170-468, looked up, not shown: large carriers)
chain: AIRFGRMPRSEKAKLKAEILTCEHDLKDSETADLKSLGKRIHEAYLKNFNMNKVKARVILAGKTSNNPPFVIHDMETLCMAEKTLVAKMVANGVEDKEAEVRFFHCCQCMSVETVTELTEFAKAIPGFANLDLNDQVTLLKYGVYEAIFTMLSSLMNKDGMLIAYGNGFITREFLKNLRKPFCDIMEPKFDFAMKFNALELDDSDISLFVAAIICCGDRPGLLNIGYIEKLQEGIVHVLKLHLQSNHPDDTFLFPKLLQKMVDLRQLVTEHAQLVQVIKKTESDAALHPLLQEIYRDMY
notes: range 170-C-terminus; Only the start is stated; also called PPAR (one clone)
Q: Does B4 bind (LexA-RXR [2])?
A: binds
